Laboratory results taken from doi:10.1101/2025.10.16.682774 (bioRxiv, 2025).

Biological target: T1, flag-tagged p115 head domain (1-655) (human, UniProt O60763 1-655)
T1 sequence (looked up): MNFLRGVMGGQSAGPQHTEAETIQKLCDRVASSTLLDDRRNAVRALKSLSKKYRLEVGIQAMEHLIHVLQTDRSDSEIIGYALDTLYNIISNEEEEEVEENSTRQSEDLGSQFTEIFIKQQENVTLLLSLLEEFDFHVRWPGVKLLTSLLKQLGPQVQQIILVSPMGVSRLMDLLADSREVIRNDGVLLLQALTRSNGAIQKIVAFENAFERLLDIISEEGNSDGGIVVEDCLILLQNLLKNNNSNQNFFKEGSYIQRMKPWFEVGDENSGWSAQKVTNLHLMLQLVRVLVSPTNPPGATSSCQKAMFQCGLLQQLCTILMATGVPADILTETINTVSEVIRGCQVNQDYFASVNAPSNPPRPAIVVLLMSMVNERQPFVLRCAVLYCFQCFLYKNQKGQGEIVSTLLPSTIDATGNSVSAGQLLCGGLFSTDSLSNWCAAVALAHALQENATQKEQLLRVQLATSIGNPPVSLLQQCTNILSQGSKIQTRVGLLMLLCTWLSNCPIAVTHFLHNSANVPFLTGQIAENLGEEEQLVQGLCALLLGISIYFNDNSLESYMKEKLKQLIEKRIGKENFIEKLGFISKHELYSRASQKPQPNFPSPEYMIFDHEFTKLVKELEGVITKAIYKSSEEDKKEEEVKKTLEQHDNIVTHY
Experiment: pull-down

B1: Sec16A(650-776)-GFP (domain or fragment, human, UniProt O15027 650-776, looked up)
chain: ALPDASPGNLEQPPDNMETLCAPQVCPLPLNSTTEAVHMLPHAGAPPLDTVYPAPEKRPSARTQGPVKCESPATTLWAQSELPDFGGNVLLAPAAPALYVCAKPQPPVVQPPEEAMSGQQSRNPSSA
B1: binds.
